Non-standard residues stand in square brackets, D forms with d. No end group written: not given here. Aib = CC(C)(N)C(=O)O
T1: human scavenger receptor class B, type 1 (SR-BI) (human, UniProt Q8WTV0 1-552)
T1 sequence (looked up): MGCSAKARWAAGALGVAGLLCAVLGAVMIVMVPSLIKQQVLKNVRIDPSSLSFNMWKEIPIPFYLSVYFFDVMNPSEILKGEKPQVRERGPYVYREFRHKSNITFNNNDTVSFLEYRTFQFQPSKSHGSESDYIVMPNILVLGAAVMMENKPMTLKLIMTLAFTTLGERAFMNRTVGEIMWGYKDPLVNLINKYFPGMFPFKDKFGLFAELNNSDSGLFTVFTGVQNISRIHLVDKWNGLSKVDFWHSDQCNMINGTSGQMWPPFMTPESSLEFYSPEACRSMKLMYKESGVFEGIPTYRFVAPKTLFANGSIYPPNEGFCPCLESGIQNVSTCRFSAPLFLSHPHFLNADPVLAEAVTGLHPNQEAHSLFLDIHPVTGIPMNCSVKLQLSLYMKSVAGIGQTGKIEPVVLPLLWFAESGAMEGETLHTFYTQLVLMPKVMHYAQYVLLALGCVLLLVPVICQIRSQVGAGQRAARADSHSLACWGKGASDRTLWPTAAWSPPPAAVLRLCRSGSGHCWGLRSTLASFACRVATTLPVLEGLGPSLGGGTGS

B1: DiI-labeled PALM prepared with the peptide of SEQ ID NO: 25 (peptide)
peptide: DVFQKL[Aib]ELFNQLLEKWKQV
modifications: also: formulated as DiI-labeled peptide amphiphile lipid micelle with POPC and egg sphingomyelin
B2: DiI-labeled PALM prepared with the peptide of SEQ ID NO: 27 (peptide)
peptide: DV[Aib]QKLFELFNQLLEKWKQV
modifications: also: formulated as DiI-labeled peptide amphiphile lipid micelle with POPC and egg sphingomyelin
B3: DiI-labeled PALM prepared with the peptide of SEQ ID NO: 35 (peptide)
peptide: DVFQKL[Aib]ELFNQL[Aib]EKWKQV
modifications: also: formulated as DiI-labeled peptide amphiphile lipid micelle with POPC and egg sphingomyelin
B4: DiI-labeled PALM prepared with the peptide of SEQ ID NO: 5 (peptide)
peptide: DVFQ[Aib]LKELLNQLLEKFKQV
modifications: also: formulated as DiI-labeled peptide amphiphile lipid micelle with POPC and egg sphingomyelin
B5: DiI-labeled PALM prepared with the peptide of SEQ ID NO: 32 (peptide)
peptide: DV[Aib]QKFLELFNQLLEKWKQV
modifications: also: formulated as DiI-labeled peptide amphiphile lipid micelle with POPC and egg sphingomyelin

Columns and labels:
SR-BI = test: DiI uptake from DiI-labeled PALM or HDL by BHK(SR-BI) cells, SR-BI induced or un-induced; assay type: cell-based, human; conditions: for Un-induced DiI Uptake: un-induced BHK(SR-BI) cells
Procedure: A 40 μl aliquot of 10 mM peptide was combined with 56 μl of 20 mM POPC. 24 μl 20 mM SM(egg) and 16 μl 2.5 mM DiI in a small glass vial. The peptide and lipid solutions were prepared in 80% TBA/20% water. The DiI stock was prepared in 92% TBA/8% water. The combined solution was lyophilized and the resultant cake was rehydrated by addition of 0.2 ml of Dulbecco's phosphate buffered saline. The solution was briefly swirled, water bath sonicated (for approx. 15 sec.) and placed in a 50° C. heating block for 20 minutes.
SR-BI interaction studies are done with BHK(SR-BI) cells stably transfected with an inducible human SR-BI gene by means of the GeneSwitch™ System (Invitrogen) (Vickers et al. (2011) Nat. Cell Biol. 13:423-433) . The cells were plated (96-well plate) (8000 cells/well) in growth medium (Dulbecco's modified Eagle medium containing 10% fetal bovine serum) containing 200 μg/ml each of zeocin and hygromycin. After 24 hours incubation, the growth medium was removed and replaced with 0.2% bovine serum albumin in Dulbecco's modified Eagle medium. The medium of cells to be induced for SR-BI expression also contained 10 nM mifepristone, added from a DMSO stock solution. DMSO alone was added to the medium of uninduced cells. The induction medium was removed after 24 hours and replaced with medium containing DiI-labeled PALM (32 μg peptide/ml) or DiI-labeled HDL (19 μg protein/mL) (Kalen Biomedical, Montgomery Village, MD). The test media were prepared by diluting an aliquot of DiI-labeled PALM (Example 10) or the DiI-labeled HDL in 0.2% bovine serum albumin in Dulbecco's modified Eagle medium. The solutions were passed through 0.2 μm pore size, polyethersulfone, sterilization filters before use. The cells were incubated for 4 hours. Next, the cells were washed 3 times with 0.1% albumin in Dulbecco's phosphate buffered saline (with calcium and magnesium). The last wash was replaced with 200 μl/well of t-butanol/water (95%/5%). The covered plate was left to stand at room temp (20-21° C.) for 30 min with occasional shaking. The fluorescence in each well was detected at 520 nm excitation and 580 nm emission with a 550 nm cutoff filter on a […] Gemini fluorescence plate reader (FIG. 9).

[1] = Stability of peptide/phospholipid complexes by visual inspection; assay type: physicochemical; conditions: SM, PC/SM 70/30, SEQ ID No. 25: peptide to phospholipids 1/4
Procedure: Separate stock solutions of peptide and phospholipids were prepared in a solvent mixture composed of 80% tert-butyl alcohol (TBA) and 20% water to obtain separate solutions of 10 mM peptide, 20 mM 1,2-dioleoyl-sn-glycero-3-phosphocholine (DOPC) or 20 mM 1-palmitoyl-2-oleoyl-phosphatidylcholine (POPC) and 20 mM egg SM. […] The solutions were combined in a 1.5 ml glass vial, frozen (−70° C.), and lyophilized at −5 to −10° C. overnight. The resultant lyophilized cakes were rehydrated by addition of Dulbecco's phosphate buffered saline followed by gentle swirling of the contents. Formation of PALM was completed by incubating the PALM solution at 50° C. for 10 minutes. […] The qualities of the PALM preparations were evident in their appearance. A visually clear preparation indicated any nanoparticles that had formed were less than approximately 40 nm diameter, based on the Tyndall effect.

[2] = molecular target: human scavenger receptor class B, type 1 (SR-BI) (human) (UniProt Q8WTV0); test: cell-based or functional assay
[3] = molecular target: T1, human scavenger receptor class B, type …; test: cell-based or functional assay
[4] = 4 hours, PALM prepared with the peptide 32 μg/ml, HDL 19 μg/ml, average (n = 4) ± SEM
[5] = complex of the peptide with POPC, C16PTX/PL 0
[6] = complex of the peptide with POPC, C16PTX/PL 0.1
[7] = complex of the peptide with DOPC, C16PTX/PL 0
[8] = complex of the peptide with DOPC, C16PTX/PL 0.1

Molecule	Un-induced DiI Uptake (SR-BI; [4])	Increase Over Un-induced (DiI uptake, BHK(SR-BI) cells) [3]	Induced DiI Uptake (pmol/ug/ml), BHK(SR-BI) cells induced for human SR-BI, 4 h [3]	further results
DVFQKLVELFNQLLEKWKQV [SEQ ID NO: 26]	0.49 ± 0.04 pmol/µg/mL			Stability of Peptide/Phospholipid Complexes by Visual Inspection [1, 5]: Clear (A visually clear preparation indicated any nanoparticles that had formed were less than approximately 40 nm diameter); Stability of Peptide/Phospholipid Complexes by Visual Inspection [1, 6]: Turbid
DVFQKL{AIB}ELFNQLLEKWKQV (DVFQKL[Aib]ELFNQLLEKWKQV) [SEQ ID NO: 25]	0.24 ± 0.01 pmol/µg/mL			Stability of Peptide/Phospholipid Complexes by Visual Inspection [1, 7]: Clear (A visually clear preparation indicated any nanoparticles that had formed were less than approximately 40 nm diameter); Stability of Peptide/Phospholipid Complexes by Visual Inspection [1, 8]: Clear (A visually clear preparation indicated any nanoparticles that had formed were less than approximately 40 nm diameter); Stability of Peptide/Phospholipid Complexes by Visual Inspection [1, 5]: Clear (A visually clear preparation indicated any nanoparticles that had formed were less than approximately 40 nm diameter); Stability of Peptide/Phospholipid Complexes by Visual Inspection [1, 6]: Clear (A visually clear preparation indicated any nanoparticles that had formed were less than approximately 40 nm diameter)
DVFQKL{AIB}ELFNQL{AIB}EKWKQV (DVFQKL[Aib]ELFNQL[Aib]EKWKQV) [SEQ ID NO: 35]	0.35 ± 0.01 pmol/µg/mL			
DVFQ{AIB}LKELFNQLLEKWKQV (DVFQ[Aib]LKELFNQLLEKWKQV) [SEQ ID NO: 3]	0.16 ± 0.01 pmol/µg/mL			
DVFQ{AIB}LKELLNQLLEKFKQV (DVFQ[Aib]LKELLNQLLEKFKQV) [SEQ ID NO: 5]	0.54 ± 0.03 pmol/µg/mL			
DV{AIB}QKFLELFNQLLEKWKQV (DV[Aib]QKFLELFNQLLEKWKQV) [SEQ ID NO: 32]	0.28 ± 0.02 pmol/µg/mL			Stability of Peptide/Phospholipid Complexes by Visual Inspection [1, 7]: Turbid; Stability of Peptide/Phospholipid Complexes by Visual Inspection [1, 8]: Turbid; Stability of Peptide/Phospholipid Complexes by Visual Inspection [1, 5]: Clear (A visually clear preparation indicated any nanoparticles that had formed were less than approximately 40 nm diameter); Stability of Peptide/Phospholipid Complexes by Visual Inspection [1, 6]: Turbid
DV{AIB}QKLFELFNQLLEKWKQV (DV[Aib]QKLFELFNQLLEKWKQV) [SEQ ID NO: 27]	0.34 ± 0.01 pmol/µg/mL			Stability of Peptide/Phospholipid Complexes by Visual Inspection [1, 7]: Turbid; Stability of Peptide/Phospholipid Complexes by Visual Inspection [1, 5]: Clear (A visually clear preparation indicated any nanoparticles that had formed were less than approximately 40 nm diameter); Stability of Peptide/Phospholipid Complexes by Visual Inspection [1, 6]: Turbid
DiI-labeled human HDL (Kalen Biomedical) (from UniProt P02647 25-267)				Increase Over Un-induced (DiI uptake, BHK(SR-BI) cells) [2]: 561%; Induced DiI Uptake (pmol/ug/ml), BHK(SR-BI) cells induced for human SR-BI, 4 h [2]: 0.86 pmol/µg/mL
HDL: high density lipoprotein, human, labeled with DiI (Kalen Biomedical) [reference compound]	0.13 ± 0.02 pmol/µg/mL			Induced DiI Uptake (SR-BI; SR-BI induced (10 nM mifepristone) BHK(SR-BI) cells, 4 hours, PALM prepared with the peptide 32 μg/ml, HDL 19 μg/ml, average (n = 4) ± SEM): 0.86 ± 0.03 pmol/µg/mL; Increase Over Un-induced (SR-BI; induced vs un-induced DiI uptake): 561%
B1		245%	0.83 pmol/µg/mL	
B2		90%	0.66 pmol/µg/mL	
B3		264%	1.26 pmol/µg/mL	
DVFQ[Aib]LKELFNQLLEKWKQV (also: formulated in a micelle with POPC, egg sphingomyelin and DiI) [DiI-labeled PALM prepared with the peptide of SEQ ID NO: 3]		88%	0.29 pmol/µg/mL	
B4		73%	0.93 pmol/µg/mL	
B5		221%	0.9 pmol/µg/mL	
DVFQKLVELFNQLLEKWKQV (also: peptide amphiphile lipid micelle with POPC, egg sphingomyelin, DiI) [DiI-labeled PALM prepared with the peptide of SEQ ID NO: 26]		65%	0.81 pmol/µg/mL	

— US20240189230A1, “PALM FOR THE TREATMENT OF CHEMOTHERAPY-INDUCED PERIPHERAL NEUROPATHY INCIDENTAL TO THE TREATMENT OF CANCER” (Peptinovo Biopharma Inc., priority 2019, published 2024)
